Test results published in paper PMC9011129.
Where two headings read alike, the source gives them in different places.

Experiments:
Larp-DM15 [1] = target: T1, Larp-DM15 (Drosophila melanogaster, UniProt Q9VAW5 1330-1481); assay: EMSA
Larp-DM15 [2] = target: T1, Larp-DM15; assay: EMSA; remark: listed apart in the source

T1 sequence (Q9VAW5 1330-1481): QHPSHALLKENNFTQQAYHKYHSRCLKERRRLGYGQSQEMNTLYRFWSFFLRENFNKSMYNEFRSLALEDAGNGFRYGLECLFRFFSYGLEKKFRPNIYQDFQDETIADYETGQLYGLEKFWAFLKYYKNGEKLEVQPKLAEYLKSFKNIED

Binder	binding result (Larp-DM15 [1])	binding result (Larp-DM15 [2])
CUUUUGCCAUUGUCAGCCGACGAAGUGCUUUAACCCAAACUA (ssRNA, 5' cap (Vaccinia capping system)) [RpL30 42-mer]	binds	–
CUUUUUGGAAUACGAAGCUGACACCGCGUGGUGUUUUUGCUU (ssRNA, 5' cap (Vaccinia capping system)) [Non1 42-mer]	–	binds
GAAAAGCCAUUGUCAGCCGACGAAGUGCUUUAACCCAAACUA (ssRNA, 5' cap (Vaccinia capping system)) [Purine-substituted RpL30 control]	no binding	–
